# According to the supplement of paper PMC9732359:
# ± gives the uncertainty stated by the source.
# Test: protein stability index of a GFP-peptide fusion (yeast GPS) (PSI 1-4); higher = more stable; sorted into four equal gates, so the index is relative within each strain
# Settings: doa10∆
# How it was run: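 For each peptide, the protein stability index sums the read frequency in every gate after multiplying it by the gate number. Read frequencies came from plasmids that were PCR-amplified from each gate and Illumina-sequenced, with reads assigned to strains by barcodes. The gates were four equal bins of GFP/Cherry fluorescence ratio applied to mid-log yeast in leucine-free medium carrying a pooled library of tiled 17-residue yeast protein peptides fused downstream of GFP on a Cherry-expressing plasmid.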
row,Sequence,protein stability index
1,KREEKAMTIYWDDHTKK [CDC53],2.5 ± 0.076
2,KRFMNTSQNPQRDAEIS [BRR2],3.04 ± 0.076
3,KRGVKGVEYRLRLRISR [RPL31A],1.64 ± 0.12
4,KRHRSSYYDNDLDETTQ [YML031W/NDC1],2.8 ± 0.065
5,KRINFEKIKDIHNTKLP [POP1],2.42 ± 0.17
6,KRITQITIEPGVDVEVV [RPS20],2.7 ± 0.089
7,KRKWSYVLYAKIVVLSR [RRP43],1.82 ± 0.06
8,KRKYDEITHPPSTTDDE [SWI3],3.13 ± 0.11
9,KRKYLDIPIDEMTLPTS [SSN2],3.1 ± 0.24
10,KRQAYAVSEKAGHQTSA [RPL4A],2.14 ± 0.12
11,KRQELEEASQQQQLQQN [MED2],2.75 ± 0.056
12,KRTRLESLKNLNESRSQ [SMC3],2.53 ± 0.092
13,KRVVVPQALRVLRLKPG [RPL16A],3.05 ± 0.087
14,KSAEGNNIDQSLILKES [YAR002W/NUP60],2.82 ± 0.095
15,KSAVSHAPAYHRSKKDQ [IRR1],3.13 ± 0.16
16,KSDEGGSYLCTSSTPSP [YOR098C/NUP1],3.16 ± 0.065
17,KSGTSHDAIFSIYKYIH [SNF12],2.51 ± 0.059
18,KSHVLLATPVQFELLSR [BRR2],2.31 ± 0.057
19,KSIMDGIHDGHIKKLLH [FAS1],1.54 ± 0.035
20,KSIQDIVGLATLIVNTD [SRP21],2.85 ± 0.054
21,KSIRKDTVEEKKEEKLN [SIR4],2.96 ± 0.088
22,KSLEDLSCQYDNTVRTS [RPO31],1.3 ± 0.19
23,KSMELFYDIRSLLERHI [YJL039C/NUP192],2.84 ± 0.044
24,KSPSLTAQKYPIYTGDG [YMR153W/NUP53],2.33 ± 0.055
25,KSSDSNDSNPSFSFSIP [YLR335W/NUP2],2.62 ± 0.046
26,KTCQWYSEHLKPYDINV [DIS3],2.78 ± 0.28

row,Sequence,protein stability index
1,KTIVTGGNGPEDFQQHE [RPO26],3.29 ± 0.069
2,KTKILEVAIRDVNLDVR [IRR1],2.58 ± 0.055
3,KTLIGLQGIVIWDSQKF [POP4],1.7 ± 0.061
4,KTPNRSSTPKFTKKPVT [SIR4],2.77 ± 0.082
5,KTPVFTTGGDYILSLVS [YMR129W/POM152],2.06 ± 0.056
6,KTQEYYTQYTNDYLEKH [CDC53],2.99 ± 0.062
7,KTRFKGSQFIVVSLKEG [SMC2],3.46 ± 0.12
8,KTSKDIAVLRSKEWFQL [FAS1],2.01 ± 0.033
9,KTTDHLFDAAFYMKKDA [RPO31],3 ± 0.075
10,KTTPNTASSEASAGSKE [YMR153W/NUP53],2.98 ± 0.052
11,KTYKEGINKNEEYRKQL [SMC1],3.23 ± 0.16
12,KTYNCLHEKYLTEGGSI [SMC1],3.03 ± 0.14
13,KVDIFEIPETGEYSVKL [FAS2],3.17 ± 0.093
14,KVFDTLTRFSHDADLEV [RPN1],2.44 ± 0.073
15,KVGEDIAKATKEFKGIK [RPL12A],3.07 ± 0.16
16,KVGQFDQVLNLCLTEFE [FAS1],2.75 ± 0.076
17,KVKLFHGILDDLETSLS [MED2],3.17 ± 0.084
18,KVLEMKNLKDTASVEKA [YIL149C/MLP2],2.95 ± 0.091
19,KVNPNIMNMIENVEKKE [SMC2],2.46 ± 0.13
20,KVSSLKMFIQRILAMCV [YCS4],2.64 ± 0.069
21,KVVGPRGTLTKNLKHID [RPL9A],3.27 ± 0.072
22,KWAGIKTRKFVFNPPKP [CYT1],3.04 ± 0.16
23,KWEQTYKKPTGGIVTVR [FAS1],3.07 ± 0.064
24,KYKSGGKFSFSPLQKEE [SSN2],1.54 ± 0.072
25,KYKSNTNNMEKIIEDLR [SMC2],3.21 ± 0.061
26,KYLGLKPGSIDAISQVI [FAS1],3.1 ± 0.081

row,Sequence,protein stability index
1,KYVHVSEVGNCSGSGMG [FAS2],2.88 ± 0.055
2,LAFDKLNVPVFQIVIEP [ARP7],2.12 ± 0.058
3,LAKERQKLWLLECQLFP [SSN8],2.06 ± 0.057
4,LAKKWFLQHPDEEYPVK [PRP8],3.23 ± 0.14
5,LAKPVFHVGFIAKIKKV [RPO21],1.21 ± 0.053
6,LALALGILYMGQGEQVD [RPN1],1.26 ± 0.16
7,LALGSHNKLIQFGNACI [SSN2],2.13 ± 0.13
8,LANEERLSNEMHALKNR [RGR1],3.32 ± 0.12
9,LANRSKENFILDSLMKT [YJL039C/NUP192],2.47 ± 0.095
10,LARRTDAPFNKVVLKAL [RPL18A],1.22 ± 0.057
11,LASKIKQYERLRFYKDT [RRI1],2.63 ± 0.068
12,LASRNKWDDLNEQLTLL [RPN5],2.99 ± 0.09
13,LAVEDKPSPIDSGIGSN [CSL4],3.02 ± 0.069
14,LAVFLFDIYNRDRKLIT [YJL039C/NUP192],1.98 ± 0.2
15,LAVKVHGGSRYATKDGV [QCR2],1.62 ± 0.11
16,LAVSTILGKNFDSVIVE [SMC1],2.86 ± 0.066
17,LCHPKKEKYGLAVSTIL [SMC1],2.29 ± 0.063
18,LCLMTWKEVMFDPSKDV [CDC53],2.52 ± 0.079
19,LCQKSPVMADLNGGLQF [FAS2],2.79 ± 0.11
20,LCRNPLTSGLLYSYLIK [YJL039C/NUP192],2.07 ± 0.064
21,LDALVDCENFFNYVQEC [YJL039C/NUP192],3.37 ± 0.12
22,LDDEKIFSQTTNSTYNP [YJL039C/NUP192],2.78 ± 0.061
23,LDDLQVILAKNENETRD [PGD1],3.27 ± 0.099
24,LDEDDTNDGIERYSDKY [RPC31],3.32 ± 0.14
25,LDERGHEKIEDEDEDND [RPN4],3.37 ± 0.25
26,LDGELDFDDFLKLGLVE [RET1],3.36 ± 0.16

row,Sequence,protein stability index
1,LDGVSYLHQNWVLHRDL [SSN3],2.34 ± 0.11
2,LDKDRKALIQRKGGKLE [RPL26A],2.48 ± 0.18
3,LDKLNCAINSKSRGSDL [RRP6],2.81 ± 0.049
4,LDLAGPLLAQLFKTLFK [RPB2],2.63 ± 0.038
5,LDNMTYSSVAGTVSRVN [RRP4],2.44 ± 0.049
6,LDPLARVSKDKKSGSLT [FAS2],3.31 ± 0.1
7,LDPLTKDPVDFVRQAAM [RPN2],3.39 ± 0.12
8,LDPYERAIYSYLSGAIP [YDL116W/NUP84],2.83 ± 0.12
9,LDSGDDQPQSSEAKRTK [BRR2],3.31 ± 0.057
10,LDSTGFDSTAFNATVDE [MED2],3.08 ± 0.048
11,LDTQLNDLRVSLNEKNA [SMC1],3.03 ± 0.11
12,LDVTKEAQANLLTAKHG [RPO21],3.23 ± 0.17
13,LDYQETYVEELFPIVKK [YJL039C/NUP192],2.81 ± 0.071
14,LDYQIGNSESKVEKGVN [LIN1],3.12 ± 0.12
15,LEAARSEKQNDEEAAGA [PRP8],2.37 ± 0.097
16,LEAPVKSIENPTQTKGN [YLR335W/NUP2],3.04 ± 0.077
17,LEDPYKYHYKEEWLNTK [CSN9],2.88 ± 0.084
18,LEDYVPHQSPDATRVFV [RPB2],2.82 ± 0.055
19,LEEIRGNPLSIGTLEEI [RPT2],3.29 ± 0.1
20,LEGEEIKSEEKKGKSSD [RPN1],2.19 ± 0.077
21,LENSSRSPRVVTNALDN [NUT1],2.85 ± 0.06
22,LEQLAQHTTESDNISRK [RPB2],3.33 ± 0.12
23,LERVKANAAKRAEAKAQ [RPL21A],3.14 ± 0.097
24,LESEAQKKATMSAEEAL [RPC34],3.13 ± 0.096
25,LESINEGNQIIVFVHSR [BRR2],1.76 ± 0.073
